In patent US20060240110A1 (published 2006):

Legend:
[1] = target: T1, streptavidin (SA chip surface) (UniProt P22629 37-163, limits assumed); experiment: SPR, Biacore 3000, streptavidin-coated chip
T1 construct: Commercial chip coating; the construct is not described; also called streptavidin-coated chip

[2] = target: the molecule itself; experiment: circular dichroism, concentration dependence of MRE222 in PBS fitted for dimerization (coiled-coil self-association)

T1 sequence (P22629 37-163 limits assumed): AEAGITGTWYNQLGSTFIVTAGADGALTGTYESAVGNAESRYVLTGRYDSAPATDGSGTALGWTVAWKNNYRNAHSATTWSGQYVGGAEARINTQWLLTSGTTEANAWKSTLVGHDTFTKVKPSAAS

B1: PF4ZIP (peptide)
peptide: CGGRMKQLEDKVKKLLKKNYHLENEVARLKKLVG
notes: The entry is the single chain; the Kd is for its self-association into a coiled-coil dimer; also called PF4ZIP peptide
binding result [1]: no binding | Kd [2]: 3.48 µM
